Assay: Solubility versus pH curves (centrifugation, reverse HPLC)
Format: physicochemical
Description: Solubility versus pH curves were measured in the following way. A formulation was prepared and aliquotes were adjusted to pH values in the desired range by adding HClO4 or HCl and NaOH. These samples were left equilibrating at room temperature for 2-3 days. Then the samples were centrifuged. A small aliquot of each sample was withdrawn for reverse HPLC analysis for determination of the concentration of the proteins in solution. The pH of each sample was measured after the centrifugation, and the concentration of each protein was depicted versus the measured pH.

pH of full precipitation (below physiological pH) (Example 2 mix, 0.6 mM GlyA21 ArgB31 ArgB32 human insulin, 0.46 mM Zn(Ac)2, 30 mM phenol, 50 μM pramlintide) [pH]	Compound	pH of complete precipitation (below physiological pH) (Example 1, 0.6 mM GlyA21 ArgB31 ArgB32 human insulin, 0.46 mM Zn(Ac)2, 30 mM phenol) [pH]	precipitation versus pH compared to formulation of the insulin analogue alone (Example 2 mix, 0.6 mM insulin analogue, 0.46 mM Zn(Ac)2, 30 mM phenol, 50 μM pramlintide)	solubility state at pH 7 (Example 3 mix, pH 7, 0.6 mM GlyA21 ArgB31 ArgB32 human insulin, 0.3 mM Zn(Ac)2, 30 mM phenol, 100 μM pramlintide)	pH above which completely precipitated (FIG. 1, 0.6 mM GlyA21 ArgB31 ArgB32 human insulin, 0.46 mM Zn(Ac)2, 30 mM phenol) [pH]
< 7.4	CC[C@H](C)[C@H](NC(=O)[C@@H]1CCCN1C(=O)CNC(=O)[C@H](Cc1ccccc1)NC(=O)[C@H](CC(N)=O)NC(=O)[C@H](CC(N)=O)NC(=O)[C@H](CO)NC(=O)[C@H](CO)NC(=O)[C@H](Cc1c[nH]cn1)NC(=O)[C@@H](NC(=O)[C@H](CC(C)C)NC(=O)[C@H](Cc1ccccc1)NC(=O)[C@H](CC(N)=O)NC(=O)[C@H](C)NC(=O)[C@H](CC(C)C)NC(=O)[C@H](CCCNC(=N)N)NC(=O)[C@H](CCC(N)=O)NC(=O)[C@@H](NC(=O)[C@H](C)NC(=O)[C@@H]1CSSC[C@H](NC(=O)[C@@H](N)CCCCN)C(=O)N[C@@H](CC(N)=O)C(=O)N[C@@H]([C@@H](C)O)C(=O)N[C@@H](C)C(=O)N[C@@H]([C@@H](C)O)C(=O)N1)[C@@H](C)O)C(C)C)C(=O)N[C@@H](CC(C)C)C(=O)N1CCC[C@H]1C(=O)N1CCC[C@H]1C(=O)N[C@H](C(=O)N[C@@H](CC(N)=O)C(=O)N[C@H](C(=O)NCC(=O)N[C@@H](CO)C(=O)N[C@@H](CC(N)=O)C(=O)N[C@H](C(=O)N[C@@H](Cc1ccc(O)cc1)C(N)=O)[C@@H](C)O)C(C)C)[C@@H](C)O [pramlintide, Pro25 Pro28 Pro29-h-amylin]				
	GlyA21 ArgB31 ArgB32 human insulin	< 7.4	not changed	completely precipitated	> 6.5
